{
  "source": "paper PMC11107369",
  "about": "“The Plasmodium vivax MSP1P-19 is involved in binding of reticulocytes through interactions with the membrane proteins band3 and CD71” (The Journal of Biological Chemistry, 2024)",
  "binders": {"B1": {"name": "Plasmodium vivax merozoite surface protein 1 paralog, 19-kDa C-terminal region (PvMSP1P-19), Trx-His-Flag-tagged (domain or fragment)", "chain": "DRVEKNCRNRKCPLNSFCFIQTINEECLCLLNYSMVGEKCILNEQNSCAVKNGGCDLKATCELKKNRVNCICPKGTKPMHEGVVCS", "notes": "P. vivax merozoite surface protein 1 paralog (PvMSP1P, 1854 aa), PlasmoDB PVX_099975, aa 1749-1834 (two EGF-like domains); Migrates at ~36 kDa; also called Trx-His-PvMSP1P-19; His-MSP1P-19; source: E. coli BL21 (DE3) and SHuffle T7 E. coli, pET32a, soluble, purified by Talen Biotech"}},
  "target": "T1, Recombinant CD71-ECD immobilised on the CM5 chip (SPR) (human, UniProt P02786 89-760)",
  "T1 construct": "Human transferrin receptor protein 1 (CD71), extracellular domain; source: recombinant",
  "T1 sequence (P02786 89-760)": "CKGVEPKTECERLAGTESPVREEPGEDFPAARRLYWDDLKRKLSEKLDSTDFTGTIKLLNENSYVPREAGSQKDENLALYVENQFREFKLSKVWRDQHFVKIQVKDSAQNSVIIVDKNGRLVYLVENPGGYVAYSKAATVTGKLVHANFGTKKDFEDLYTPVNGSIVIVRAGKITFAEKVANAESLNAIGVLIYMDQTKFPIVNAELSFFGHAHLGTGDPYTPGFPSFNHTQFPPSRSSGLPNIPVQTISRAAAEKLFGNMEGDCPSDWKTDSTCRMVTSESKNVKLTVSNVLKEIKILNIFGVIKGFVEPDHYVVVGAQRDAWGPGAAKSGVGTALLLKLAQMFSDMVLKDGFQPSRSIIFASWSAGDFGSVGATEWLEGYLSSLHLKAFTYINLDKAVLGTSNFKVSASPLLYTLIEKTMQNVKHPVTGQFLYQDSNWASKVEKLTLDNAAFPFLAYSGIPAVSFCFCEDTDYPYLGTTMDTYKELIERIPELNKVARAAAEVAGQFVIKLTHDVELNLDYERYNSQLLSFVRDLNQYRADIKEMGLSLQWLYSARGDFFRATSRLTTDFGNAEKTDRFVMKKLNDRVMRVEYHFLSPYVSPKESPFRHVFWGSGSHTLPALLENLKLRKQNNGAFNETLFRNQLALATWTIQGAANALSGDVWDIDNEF",
  "assay": "SPR; BIAcore S200; CD71-ECD coupled to CM5 chip (EDC/NHS, 10 mM NaAc pH 4.5); analyte PvMSP1P-19 6.25, 12.5, 25, 50 μM at 30 μl/min; 1:1 Langmuir model; apparent KD",
  "conditions": "both partners purified",
  "data": [
    {"binder": "B1", "values": [
      {"measurement": "Kd", "value": 35.5, "unit": "µM"}
    ]}
  ]
}
